From patent US20140087995A1 (published 2014)
Numbered stars: 1 amine (or outer) side, 2 acyl side, 3 side chain; on linkers, the order of the positions; unused ones are H or OH. Bridge positions count the residues as written; N and C are the ends. Side chains are listed from the residue outwards. Ends that are not written are not given here. * marks the point of attachment. C20 diacid = O=C(O)CCCCCCCCCCCCCCCCCCC(=O)*; γGlu = O=C(O)[C@H](CCC(=O)[*:2])N[*:1]; AEEA = NCCOCCOCC(=O)O

B1: N^ε1-[2-[2-[2-[[2-[2-[2-[[(4S)-4-carboxy-4-(19-carboxynonadecanoylamino)butanoyl]amino]ethoxy]ethoxy]acetyl]amino]ethoxy]ethoxy]acetyl]-[Arg17,Pro21,Pro27,Glu35 … (peptide)
peptide: K([AEEA-AEEA-γGlu-C20 diacid])CNTATCATQRLANFLRHSSPNFGAIPSSTNVGSETY-NH2
modifications: disulfide 2-7; N-terminus assumed
SMILES: CC[C@H](C)[C@H](NC(=O)[C@H](C)NC(=O)CNC(=O)[C@H](Cc1ccccc1)NC(=O)[C@H](CC(N)=O)NC(=O)[C@@H]1CCCN1C(=O)[C@H](CO)NC(=O)[C@H](CO)NC(=O)[C@H](Cc1c[nH]cn1)NC(=O)[C@H](CCCNC(=N)N)NC(=O)[C@H](CC(C)C)NC(=O)[C@H](Cc1ccccc1)NC(=O)[C@H](CC(N)=O)NC(=O)[C@H](C)NC(=O)[C@H](CC(C)C)NC(=O)[C@H](CCCNC(=N)N)NC(=O)[C@H](CCC(N)=O)NC(=O)[C@@H](NC(=O)[C@H](C)NC(=O)[C@@H]1CSSC[C@H](NC(=O)[C@@H](N)CCCCNC(=O)COCCOCCNC(=O)COCCOCCNC(=O)CC[C@H](NC(=O)CCCCCCCCCCCCCCCCCCC(=O)O)C(=O)O)C(=O)N[C@@H](CC(N)=O)C(=O)N[C@@H]([C@@H](C)O)C(=O)N[C@@H](C)C(=O)N[C@@H]([C@@H](C)O)C(=O)N1)[C@@H](C)O)C(=O)N1CCC[C@H]1C(=O)N[C@@H](CO)C(=O)N[C@@H](CO)C(=O)N[C@H](C(=O)N[C@@H](CC(N)=O)C(=O)N[C@H](C(=O)NCC(=O)N[C@@H](CO)C(=O)N[C@@H](CCC(=O)O)C(=O)N[C@H](C(=O)N[C@@H](Cc1ccc(O)cc1)C(N)=O)[C@@H](C)O)C(C)C)[C@@H](C)O
notes: modifications are with respect to human amylin; also called compound 25
B2: N^ε1-[2-[2-[2-[[(4S)-4-carboxy-4-(19-carboxynonadecanoylamino)butanoyl]amino]ethoxy]ethoxy]acetyl]-[Arg17,Pro21,Pro27,Glu35]-h-amylin (peptide)
peptide: K([AEEA-γGlu-C20 diacid])CNTATCATQRLANFLRHSSPNFGAIPSSTNVGSETY-NH2
modifications: disulfide 2-7; N-terminus assumed
SMILES: CC[C@H](C)[C@H](NC(=O)[C@H](C)NC(=O)CNC(=O)[C@H](Cc1ccccc1)NC(=O)[C@H](CC(N)=O)NC(=O)[C@@H]1CCCN1C(=O)[C@H](CO)NC(=O)[C@H](CO)NC(=O)[C@H](Cc1c[nH]cn1)NC(=O)[C@H](CCCNC(=N)N)NC(=O)[C@H](CC(C)C)NC(=O)[C@H](Cc1ccccc1)NC(=O)[C@H](CC(N)=O)NC(=O)[C@H](C)NC(=O)[C@H](CC(C)C)NC(=O)[C@H](CCCNC(=N)N)NC(=O)[C@H](CCC(N)=O)NC(=O)[C@@H](NC(=O)[C@H](C)NC(=O)[C@@H]1CSSC[C@H](NC(=O)[C@@H](N)CCCCNC(=O)COCCOCCNC(=O)CC[C@H](NC(=O)CCCCCCCCCCCCCCCCCCC(=O)O)C(=O)O)C(=O)N[C@@H](CC(N)=O)C(=O)N[C@@H]([C@@H](C)O)C(=O)N[C@@H](C)C(=O)N[C@@H]([C@@H](C)O)C(=O)N1)[C@@H](C)O)C(=O)N1CCC[C@H]1C(=O)N[C@@H](CO)C(=O)N[C@@H](CO)C(=O)N[C@H](C(=O)N[C@@H](CC(N)=O)C(=O)N[C@H](C(=O)NCC(=O)N[C@@H](CO)C(=O)N[C@@H](CCC(=O)O)C(=O)N[C@H](C(=O)N[C@@H](Cc1ccc(O)cc1)C(N)=O)[C@@H](C)O)C(C)C)[C@@H](C)O
notes: modifications are with respect to human amylin; also called compound 26
B3: N^ε1-[(4S)-4-carboxy-4-(19-carboxynonadecanoylamino)butanoyl]-[Arg17,Pro21,Pro27,Glu35]-h-amylin (peptide)
peptide: K([γGlu-C20 diacid])CNTATCATQRLANFLRHSSPNFGAIPSSTNVGSETY-NH2
modifications: disulfide 2-7; N-terminus assumed
SMILES: CC[C@H](C)[C@H](NC(=O)[C@H](C)NC(=O)CNC(=O)[C@H](Cc1ccccc1)NC(=O)[C@H](CC(N)=O)NC(=O)[C@@H]1CCCN1C(=O)[C@H](CO)NC(=O)[C@H](CO)NC(=O)[C@H](Cc1c[nH]cn1)NC(=O)[C@H](CCCNC(=N)N)NC(=O)[C@H](CC(C)C)NC(=O)[C@H](Cc1ccccc1)NC(=O)[C@H](CC(N)=O)NC(=O)[C@H](C)NC(=O)[C@H](CC(C)C)NC(=O)[C@H](CCCNC(=N)N)NC(=O)[C@H](CCC(N)=O)NC(=O)[C@@H](NC(=O)[C@H](C)NC(=O)[C@@H]1CSSC[C@H](NC(=O)[C@@H](N)CCCCNC(=O)CC[C@H](NC(=O)CCCCCCCCCCCCCCCCCCC(=O)O)C(=O)O)C(=O)N[C@@H](CC(N)=O)C(=O)N[C@@H]([C@@H](C)O)C(=O)N[C@@H](C)C(=O)N[C@@H]([C@@H](C)O)C(=O)N1)[C@@H](C)O)C(=O)N1CCC[C@H]1C(=O)N[C@@H](CO)C(=O)N[C@@H](CO)C(=O)N[C@H](C(=O)N[C@@H](CC(N)=O)C(=O)N[C@H](C(=O)NCC(=O)N[C@@H](CO)C(=O)N[C@@H](CCC(=O)O)C(=O)N[C@H](C(=O)N[C@@H](Cc1ccc(O)cc1)C(N)=O)[C@@H](C)O)C(C)C)[C@@H](C)O
notes: modifications are with respect to human amylin; also called compound 27
B4: N^ε1-[2-[2-[2-[[(4S)-4-carboxy-4-(19-carboxynonadecanoylamino)butanoyl]amino]ethoxy]ethoxy]acetyl]-[Arg17,Pro21,Pro27,Pro31]-h-amylin (peptide)
peptide: K([AEEA-γGlu-C20 diacid])CNTATCATQRLANFLRHSSPNFGAIPSSTPVGSNTY-NH2
modifications: disulfide 2-7; N-terminus assumed
SMILES: CC[C@H](C)[C@H](NC(=O)[C@H](C)NC(=O)CNC(=O)[C@H](Cc1ccccc1)NC(=O)[C@H](CC(N)=O)NC(=O)[C@@H]1CCCN1C(=O)[C@H](CO)NC(=O)[C@H](CO)NC(=O)[C@H](Cc1c[nH]cn1)NC(=O)[C@H](CCCNC(=N)N)NC(=O)[C@H](CC(C)C)NC(=O)[C@H](Cc1ccccc1)NC(=O)[C@H](CC(N)=O)NC(=O)[C@H](C)NC(=O)[C@H](CC(C)C)NC(=O)[C@H](CCCNC(=N)N)NC(=O)[C@H](CCC(N)=O)NC(=O)[C@@H](NC(=O)[C@H](C)NC(=O)[C@@H]1CSSC[C@H](NC(=O)[C@@H](N)CCCCNC(=O)COCCOCCNC(=O)CC[C@H](NC(=O)CCCCCCCCCCCCCCCCCCC(=O)O)C(=O)O)C(=O)N[C@@H](CC(N)=O)C(=O)N[C@@H]([C@@H](C)O)C(=O)N[C@@H](C)C(=O)N[C@@H]([C@@H](C)O)C(=O)N1)[C@@H](C)O)C(=O)N1CCC[C@H]1C(=O)N[C@@H](CO)C(=O)N[C@@H](CO)C(=O)N[C@H](C(=O)N1CCC[C@H]1C(=O)N[C@H](C(=O)NCC(=O)N[C@@H](CO)C(=O)N[C@@H](CC(N)=O)C(=O)N[C@H](C(=O)N[C@@H](Cc1ccc(O)cc1)C(N)=O)[C@@H](C)O)C(C)C)[C@@H](C)O
notes: modifications are with respect to human amylin; also called compound 49

Assays:
[1] = target: T1, human calcitonin receptor (human, UniProt P30988 25-474); assay: IC50 at hCTR divided by IC50 at hAmylin-R (reference)
T1 construct: whole, on cells; Membranes of a BHK tk'ts 13 cell line stably transfected with the human calcitonin receptor; also called hCTR; hCT
T1 sequence (looked up): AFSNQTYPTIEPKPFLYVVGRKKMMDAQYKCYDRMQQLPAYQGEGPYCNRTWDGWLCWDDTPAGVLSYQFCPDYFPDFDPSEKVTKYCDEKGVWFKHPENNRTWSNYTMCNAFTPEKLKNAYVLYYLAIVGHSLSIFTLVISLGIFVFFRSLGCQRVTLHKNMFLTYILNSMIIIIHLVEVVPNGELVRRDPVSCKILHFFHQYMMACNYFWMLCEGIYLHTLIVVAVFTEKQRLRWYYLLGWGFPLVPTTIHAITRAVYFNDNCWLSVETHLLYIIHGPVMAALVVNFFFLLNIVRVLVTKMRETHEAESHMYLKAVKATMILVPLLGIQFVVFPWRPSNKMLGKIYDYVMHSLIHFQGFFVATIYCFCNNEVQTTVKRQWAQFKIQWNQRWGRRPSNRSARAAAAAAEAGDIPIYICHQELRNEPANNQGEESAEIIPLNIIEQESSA
How it was run: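 Competition binding by SPA with cell membranes (35 ng/μL) and SPA beads in 50 mM Hepes pH 7.4 with 1 mM CaCl2, 5 mM MgCl2, 0.1% OA and 0.02% Tween20. Incubated 120 min at 25 °C with shaking, then counted.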

[2] = target: T2, rat amylin receptor (rat calcitonin receptor + rat RAMP 3) (rat, UniProt P32214 25-516; Q9JJ73 23-147); assay: SPA competition vs 125I-rat amylin, membranes with rat CTR + rat RAMP3 (Assay VI)
T2 construct: whole, on cells; Membranes of BHK tk'ts 13 cells transiently transfected with the rat calcitonin receptor and rat RAMP 3; also called rAmylin-R; rat amylin 3(a) receptor
T2 sequence (looked up) 1: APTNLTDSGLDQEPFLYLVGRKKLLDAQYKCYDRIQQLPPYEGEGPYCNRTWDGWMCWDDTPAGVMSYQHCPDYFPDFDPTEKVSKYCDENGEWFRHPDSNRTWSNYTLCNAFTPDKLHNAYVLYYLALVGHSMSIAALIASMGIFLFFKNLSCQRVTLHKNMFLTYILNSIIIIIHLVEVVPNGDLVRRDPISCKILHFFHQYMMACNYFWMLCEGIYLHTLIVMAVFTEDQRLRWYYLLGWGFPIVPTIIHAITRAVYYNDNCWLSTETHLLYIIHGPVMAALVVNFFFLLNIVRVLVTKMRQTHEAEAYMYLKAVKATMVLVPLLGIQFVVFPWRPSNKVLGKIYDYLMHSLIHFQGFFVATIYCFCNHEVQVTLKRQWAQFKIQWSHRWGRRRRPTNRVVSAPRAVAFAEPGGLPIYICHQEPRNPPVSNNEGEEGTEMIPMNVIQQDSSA
T2 sequence (looked up) 2: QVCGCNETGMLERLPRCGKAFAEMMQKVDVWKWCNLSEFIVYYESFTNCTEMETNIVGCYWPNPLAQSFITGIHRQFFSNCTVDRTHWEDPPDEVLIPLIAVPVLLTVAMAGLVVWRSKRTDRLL

rat calcitonin receptor [3] = target: T3, rat calcitonin receptor (rat, UniProt P32214 25-516); assay: IC50 at rCTR divided by IC50 at rAmylin-R (reference)
T3 construct: whole, on cells; Membranes of BHK tk'ts 13 cells transiently transfected with the rat calcitonin receptor; also called rCTR; rat calcitonin (a) receptor
T3 sequence (looked up): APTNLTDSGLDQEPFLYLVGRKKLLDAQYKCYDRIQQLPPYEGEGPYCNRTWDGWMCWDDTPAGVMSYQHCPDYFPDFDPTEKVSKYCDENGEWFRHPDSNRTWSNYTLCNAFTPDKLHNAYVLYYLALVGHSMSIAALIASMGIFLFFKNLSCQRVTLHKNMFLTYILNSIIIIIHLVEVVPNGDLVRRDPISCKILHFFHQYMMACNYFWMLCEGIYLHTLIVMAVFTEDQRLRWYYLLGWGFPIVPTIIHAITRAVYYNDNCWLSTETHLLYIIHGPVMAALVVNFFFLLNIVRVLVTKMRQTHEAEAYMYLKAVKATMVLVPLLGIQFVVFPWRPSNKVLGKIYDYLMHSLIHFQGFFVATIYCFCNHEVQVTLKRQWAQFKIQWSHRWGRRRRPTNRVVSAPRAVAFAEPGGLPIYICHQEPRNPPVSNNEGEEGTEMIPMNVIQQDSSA

rat calcitonin receptor [4] = target: T3, rat calcitonin receptor; assay: SPA competition vs 125I-calcitonin, membranes with rat CTR (Assay VIII)

| Binder | Ratio hCT/hAmylin binding [1] | IC50 [2] [nM] | Ratio rCT/rAmylin binding (rat calcitonin receptor [3]) | IC50 (rat calcitonin receptor [4]) [nM] |
| --- | --- | --- | --- | --- |
| B1 | 56.5 | 3.48 | 37.7 | 131 |
| B2 | 47.5 | 0.491 | 309 | 152 |
| B3 | 41.3 | 0.614 | 147 | 90.2 |
| B4 | 10.8 | 1.08 | 47.7 | 51.4 |
